Laboratory results taken from patent publication US20250145673A1.

Columns and labels:
[1] = biological target: C3b (UniProt P01024); experiment: ITC, polypeptide titrated into C3b; fit box in the lower panel
[2] = biological target: C3b (UniProt P01024); experiment: SPR, target amine-coupled to chip, single cycle kinetics, 1:1 Langmuir fit
[3] = biological target: C3b (UniProt P01024); experiment: ITC, binder titrated into target
[4] = biological target: C3b (UniProt P01024); experiment: ITC

Ka [1] [M⁻¹]	Kd [2] [nM]	-TΔS [3] [kcal/mol]	Kd [3] [nM]	N [3]	ΔG [3] [kcal/mol]	ΔH [3] [kcal/mol]	Kd [4] [nM]	Binder
3.88e+08	1.92	23.9	2.6	0.95	-11.7	-35.6	2.6	polypeptide having the amino acid sequence of SEQ ID NO: 27 (designed binder) MVKVKFEATGEEKEVDTSKIYQVYRSGKEVLFTYDDNGKTGWGYVSEKDAPKELLDMLARAEREK
7.95e+08	0.16	6.5	1.3	0.9	-12.1	-18.6	1.3	polypeptide comprising the amino acid sequence of SEQ ID NO: 33 (designed binder) MVKVKFAATGEEKEVETSKIANVYRVGKDVLFSYDDQGKIGWGYVSEKDAPKELLDLLARAEREK
1.4e+09	0.42	14.7	0.7	0.89	-12.5	-27.2	0.7	polypeptide comprising the amino acid sequence of SEQ ID NO: 34 (designed binder) MVKVKFDATGEEKEVETSKISAVYRTGKDVLFSYDDQGKIGWGYVSEKDAPKELLDLLARAEREK
